These binders were tested against PD-L1 on CHO-K1/PD-L1/alphaAPC stimulator cells (UniProt Q9NZQ7 19-290, limits assumed) (assay: cell-based or functional assay).
PD-L1 on CHO-K1/PD-L1/alphaAPC stimulator cells, sequence (Q9NZQ7 19-290 limits assumed): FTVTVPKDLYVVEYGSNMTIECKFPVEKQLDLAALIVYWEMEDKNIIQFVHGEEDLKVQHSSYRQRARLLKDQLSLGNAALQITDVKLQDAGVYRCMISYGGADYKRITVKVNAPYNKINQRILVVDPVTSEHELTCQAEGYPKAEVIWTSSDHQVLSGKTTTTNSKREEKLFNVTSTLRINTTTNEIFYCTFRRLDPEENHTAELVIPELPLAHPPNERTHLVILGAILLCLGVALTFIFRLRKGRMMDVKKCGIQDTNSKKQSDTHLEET

Row | PD-L1/PD-1 blockade EC50 (nM) | PD-L1/PD-1 blockade EC50 (ng/ml) [ng/mL] | Binder
1 | 1.13 | 164 | PD-L1 binding agent 15 (antibody, V domains shown) VH: QVQLVQSGAEVKKPGASVKVSCKASGYTFTRHYVHWVRQAPGQGLEWMGWMNPNSGSAGYAQKFQGRVTMTRDTSTSTVYMELSSLRSEDTAVYYCARERGYNAFDYWGQGTLVTVSS VL: EIVMTQSPATLSVSPGERATLSCRASQSLSSSYLAWYQQKPGQAPRLLIYGASTRATGIPARFSGSGSGTEFTLTISSLQSEDFAVYYCHQYFTTPLTFGQGTRLEIK
2 | 1.25 | 181 | PD-L1 binding agent 16 (antibody, V domains shown) VH: QVQLVQSGAEVKKPGASVKVSCKASGYTLPNYIHWVRQAPGQGLEWMGWIHPRSGATGYAPKFQGRVTMTRDTSTSTVYMELSSLRSEDTAVYYCARDSVFGLDYWGQGTLVTVSS VL: not shown
3 | 0.85 | 124 | PD-L1 binding agent 4 (antibody, V domains shown) VH: QVQLVQSGAEVKKPGSSVKVSCKASGYTFTGYYIHWVRQAPGQGLEWMGGIIPIFGTASYAQKFQGRVTITADESTSTAYMELSSLRSEDTAVYYCARDGRFWSGYPDYWGQGTLVTVSS VL: DIQMTQSPSSLSASVGDRVTITCRASQGISNYLAWYQQKPGKAPKLLIYRASNLESGVPSRFSGSGSGTDFTLTISSLQPEDFATYYCQQSYSTPLTFGGGTKVEIK
4 | 0.37 | 54.3 | PD-L1 binding agent 5 (antibody, V domains shown) VH: QVQLVQSGAEVKKPGASVKVSCKASGYTFSTHYMHWVRQAPGQGLEWMGWMNPNSGHAGSAQKFQGRVTMTRDTSTSTVYMELSSLRSEDTAVYYCARESIAVAGYDYWGQGTLVTVSS VL: DIQMTQSPSSLSASVGDRVTITCRASQSISSWLAWYQQKPGKAPKLLIYAASTLQRGVPSRFSGSGSGTDFTLTISSLQPEDFATYYCQQSYSTPYTFGQGTKLEIK
5 | 0.67 | 97.3 | PD-L1 binding agent 9 (antibody, V domains shown) VH: QVQLVQSGAEVKEPGASVKVSCKASGYTFTDHYLHWVRQAPGQGLEWMGWMNPNIGNTGYAQKFQGRVTMTRDTSTSTVYMELSSLRSEDTAVYYCAREPLQLGGFDYWGQGTLVTVSS VL: DIQMTQSPSSLSASVGDRVTITCRASESISSWLAWYQQKPGKAPKLLIYAASSLQSGVPSRFSGSGSGTDFTLTISSLQPEDFATYYCQQSYSTPLTFGQGTKLEIK
6 | 0.47 | 67.4 | PD-L1 binding agent 10 (antibody, V domains shown) VH: QVQLVQSGAEVKKPGASVKVSCKASGYTFTGYYMHWVRQAPGQGLEWMGWMNPNGGTTGYAQNFQGRVTMTRDTSTSTVYMELSSLRSEDTAVYYCAREGFGPNAFDIWGQGTTVTVSS VL: DIQMTQSPSSLSASVGDRVTITCRASQSISSWLAWYQQKPGKAPKLLIYAASNLQSGVPSRFSGSGSGTDFTLTISSLQPEDFATYYCQQYYSTPYTFGQGTKVEIK
7 | 1.15 | 166 | PD-L1 binding agent 14 (antibody, V domains shown) VH: QVQLVQSGAEVKKPGASVKVSCKASGYNFSAYYVHWVRQAPGQGLEWMGWMNPNRGITDSAQKFQGRVTMTRDTSTSTVYMELSSLRSEDTAVYYCAREAYVAAFDIWGQGTTVTVSS VL: DIQMTQSPSSLSASVGDRVTITCRASQGISSWLAWYQQKPGKAPKLLIYAASSLQSGVPSRFSGSGSGTDFTLTISSLQPEDFATYYCQQSYSTPLTFGGGTKVEIK
8 | 0.37 | 53.6 | PD-L1 binding agent 11 (antibody, V domains shown) VH: QVQLVQSGAEVKKPGASVKVSCKASGYTFTGYYMHWVRQAPGQGLEWMGWMNPNSGNTGYAQKFQGRVTMTRDTSTSTVYMELSSLRSEDTAVYYCARDSWYGDWFDPWGQGTLVTVSS VL: DIQMTQSPSSLSASVGDRVTITCRASQSVGSWLAWYQQKPGKAPKLLIYGASSLQSGVPSRFSGSGSGTDFTLTISSLQPEDFATYYCQQSYSTPLTFGGGTKVEIK
9 | 0.73 | 106 | PD-L1 binding agent 6 (antibody, V domains shown) VH: QVQLVQSGAEVKKPGASVKVSCKASGYTFTSHDINWVRQAPGQGLEWMGWMNPNSGNTGYAQKFQGRVTMTRDTSTSTVYMELSSLRSEDTAVYYCARDRWYMGSADYWGQGTLVTVSS VL: DIQMTQSPSSLSASVGDRVTITCRASQSISTWLAWYQQKPGKAPKLLIYAASTLQSGVPSRFSGSGSGTDFTLTISSLQPEDFATYYCQQSYSTPFTFGQGTKVEIK
10 | 0.73 | 106 | PD-L1 binding agent 7 (antibody, V domains shown) VH: QVQLVQSGAEVKKPGASVKVSCKASGYTFTSYYMHWVRQAPGQGLEWMGWMNPNSGNTGYAQKFQGRVTMTRDTSTSTVYMELSSLRSEDTAVYYCARDDWGGDWFDPWGQGTLVTVSS VL: DIQMTQSPSSLSASVGDRVTITCQASQDISNHLNWYQQKPGKAPKLLIYGASNLQRGVPSRFSGSGSGTDFTLTISSLQPEDFATYYCQQSYSTPITFGQGTRLEIK
11 | 0.74 | 106 | PD-L1 binding agent 1 (antibody, V domains shown) VH: QVQLVQSGAEVKKPGASVKVSCKASGYTFSSDYMHWVRQAPGQGLEWMGWMSPYNGITGYAQKFQGRVTMTRDTSTSTVYMELSSLRSEDTAVYYCARDRFSGSYDYWGQGTLVTVSS VL: not shown
12 | 0.33 | 47.3 | PD-L1 binding agent 3 (antibody, V domains shown) VH: QVQLVQSGAEVKKPGASVKVSCKASGYTFSSYYMHWVRQAPGQGLEWMGWMTTNSGITGYAQKFQGRVTMTRDTSTSTVYMELSSLRSEDTAVYYCAREGYSSGLDYWGQGTLVTVSS VL: not shown

The binders below were run against T1, human PD-L1 (hPD-L1), endogenous on JIMT-1 cells (human, UniProt Q9NZQ7 19-290) (assay: flow cytometry, JIMT-1 cells with endogenous hPD-L1, fluorescent anti-human IgG Fc secondary, geometric MFI).
T1 construct: The assay used endogenous hPD-L1 on JIMT-1 cells; also called programmed death-ligand 1; CD274
Method: Diluted binding agents were applied to JIMT-1 cells (˜1×10⁵-2×10⁵ per well) and incubated at 4° C. […] After unbound secondary antibody was washed out, cells were resuspended in FACS buffer plus 2% formaldehyde and analyzed by flow cytometry.

T1 sequence (Q9NZQ7 19-290 limits assumed): as the sequence (Q9NZQ7 19-290 limits assumed) above

Row | binding result | Binder
13 | binds | 12 (antibody, V domains shown) VH: QVQLVQSGAEVKKPGASVKVSCKASGYTFTGYYMHWMRQAPGQGLEWIGWMSPYNGITGYAQKFQGRVTMTRDTSTSTVYMELSSLRSEDTAVYYCAREVIEVGMDVWGQGTTVTVSS VL: DIQMTQSPSSLSASVGDRVTITCRASQSISSWLAWYQQKPGKAPKLLIYAASHLQSGVPSRFSGSGSGTDFTLTISSLQPEDFATYYCQQSYSTPYTFGQGTRLEIK
14 | binds | 13 (antibody, V domains shown) VH: QVQLVQSGAEVKKPGASVKVSCKASGYTFTNYYMHWVRQAPGQGLEWMGWMSPSSGITGYAQKFQGRVTMTRDTSTSTVYMELSSLRSEDTAVYYCAREAWFGELSTWGQGTLVTVSS VL: DIQMTQSPSSLSASVGDRVTITCRASQNISNFLNWYQQKPGKAPKLLIYAASSLQSGVPSRFSGSGSGTDFTLTISSLQPEDFATYYCQQSYSLPYTFGQGTKVEIK
15 | binds | 49 (antibody, V domains shown) VH: QVQLVQSGAEVKKPGASVKVSCKASGYTFTDHYLHWVRQAPGQGLEWMGWINPNIGNTGYAQKFQGRVTMTRDTSTSTVYMELSSLRSEDTAVYYCAREPLQLGGFDYWGQGTLVTVSS VL: DIQMTQSPSSLSASVGDRVTITCRASESISSWLAWYQQKPGKAPKLLIYAASSLQSGVPSRFSGSGSGTDFTLTISSLQPEDFATYYCQQSYSTPLTFGQGTKLEIK
16 | binds | 46 (antibody, V domains shown) VH: QVQLVQSGAEVKKPGASVKVSCKASGYTFSTHYMHWVRQAPGQGLEWMGWINPNSGHAGSAQKFQGRVTMTRDTSTSTVYMELSSLRSEDTAVYYCARESIAVAGYDYWGQGTLVTVSS VL: DIQMTQSPSSLSASVGDRVTITCRASQSISSWLAWYQQKPGKAPKLLIYAASTLQRGVPSRFSGSGSGTDFTLTISSLQPEDFATYYCQQSYSTPYTFGQGTKLEIK
17 | binds | 47 (antibody, V domains shown) VH: QVQLVQSGAEVKKPGASVKVSCKASGYTFTGYYMHWVRQAPGQGLEWMGWINPNSGTTGYAQNFQGRVTMTRDTSTSTVYMELSSLRSEDTAVYYCAREGFGPNAFDIWGQGTTVTVSS VL: DIQMTQSPSSLSASVGDRVTITCRASQSISSWLAWYQQKPGKAPKLLIYAASNLQSGVPSRFSGSGSGTDFTLTISSLQPEDFATYYCQQYYSTPYTFGQGTKVEIK
18 | binds | 48 (antibody, V domains shown) VH: QVQLVQSGAEVKKPGASVKVSCKASGYTFTSYYMHWVRQAPGQGLEWMGWINPNSGNTGYAQKFQGRVTMTRDTSTSTVYMELSSLRSEDTAVYYCARDDWGGDWFDYWGQGTLVTVSS VL: DIQMTQSPSSLSASVGDRVTITCQASQDISNHLNWYQQKPGKAPKLLIYGASNLQRGVPSRFSGSGSGTDFTLTISSLQPEDFATYYCQQSYSTPITFGQGTRLEIK
19 | binds | 45 (antibody, V domains shown) VH: QVQLVQSGAEVKKPGASVKVSCKASGYTFSSYYMHWVRQAPGQGLEWMGWITTNSGITGYAQKFQGRVTMTRDTSTSTVYMELSSLRSEDTAVYYCAREGYSSGLDYWGQGTLVTVSS VL: not shown

Source: patent publication US20230069055A1 (BOLT BIOTHERAPEUTICS, published 2023)
